Source: US20110105394A1 (Novo Nordisk, published 2011)
*1 amine or outer side, *2 acyl side, *3 side chain or, on linkers, in order; H or OH if unused. Bridges are numbered along the chain shown (N, C = ends). Where no end group is shown, it is not given here. Side-chain parts run from the residue outwards. The star is where a group is joined. X1 = (S)‑4‑Carboxy‑4‑(17-carboxyheptadecanoylamino)butyryl, O=C(O)CCCCCCCCCCCCCCCCC(=O)N[C@@H](CCC(=O)*)C(=O)O; C20 diacid = O=C(O)CCCCCCCCCCCCCCCCCCC(=O)*; γGlu = O=C(O)[C@H](CCC(=O)[*:2])N[*:1]; Trx = NC[C@H]1CC[C@H](C(=O)O)CC1; AEEA = NCCOCCOCC(=O)O

B1: N-alpha-[(S)-4-Carboxy-4-(17-carboxyheptadecanoylamino)butyryl]-Arg-[Arg17]-pramlintide (peptide)
peptide: X1-RKCNTATCATQRLANFLRHSSNNFGPILPPTNVGSNTY-NH2
modifications: disulfide 3-8
SMILES: CC[C@H](C)[C@H](NC(=O)[C@@H]1CCCN1C(=O)CNC(=O)[C@H](Cc1ccccc1)NC(=O)[C@H](CC(N)=O)NC(=O)[C@H](CC(N)=O)NC(=O)[C@H](CO)NC(=O)[C@H](CO)NC(=O)[C@H](Cc1c[nH]cn1)NC(=O)[C@H](CCCNC(=N)N)NC(=O)[C@H](CC(C)C)NC(=O)[C@H](Cc1ccccc1)NC(=O)[C@H](CC(N)=O)NC(=O)[C@H](C)NC(=O)[C@H](CC(C)C)NC(=O)[C@H](CCCNC(=N)N)NC(=O)[C@H](CCC(N)=O)NC(=O)[C@@H](NC(=O)[C@H](C)NC(=O)[C@@H]1CSSC[C@H](NC(=O)[C@H](CCCCN)NC(=O)[C@H](CCCNC(=N)N)NC(=O)CC[C@H](NC(=O)CCCCCCCCCCCCCCCCC(=O)O)C(=O)O)C(=O)N[C@@H](CC(N)=O)C(=O)N[C@@H]([C@@H](C)O)C(=O)N[C@@H](C)C(=O)N[C@@H]([C@@H](C)O)C(=O)N1)[C@@H](C)O)C(=O)N[C@@H](CC(C)C)C(=O)N1CCC[C@H]1C(=O)N1CCC[C@H]1C(=O)N[C@H](C(=O)N[C@@H](CC(N)=O)C(=O)N[C@H](C(=O)NCC(=O)N[C@@H](CO)C(=O)N[C@@H](CC(N)=O)C(=O)N[C@H](C(=O)N[C@@H](Cc1ccc(O)cc1)C(N)=O)[C@@H](C)O)C(C)C)[C@@H](C)O
B2: N-alpha-[(S)-4-Carboxy-4-(19-carboxynonadecanoylamino)butyryl]-His-[His1,His17]-pramlintide (peptide)
peptide: HHCNTATCATQRLANFLHHSSNNFGPILPPTNVGSNTY-NH2
modifications: disulfide 3-8; not fully specified (N-terminus); printed as N-alpha-[(S)-4-Carboxy-4-(19-carboxynonadecanoylamino)butyryl]-His-[His1,His17]-pramlintide
B3: N-alpha-[(S)-4-Carboxy-4-(19-carboxynonadecanoylamino)butyryl]-His-[His17]-pramlintide (peptide)
peptide: HKCNTATCATQRLANFLHHSSNNFGPILPPTNVGSNTY-NH2
modifications: disulfide 3-8; not fully specified (N-terminus); printed as N-alpha-[(S)-4-Carboxy-4-(19-carboxynonadecanoylamino)butyryl]-His-[His17]-pramlintide
B4: N-alpha-[(S)-4-Carboxy-4-(17-carboxyheptadecanoylamino)butyryl]-His-[His1,His17]-pramlintide (peptide)
peptide: X1-HHCNTATCATQRLANFLHHSSNNFGPILPPTNVGSNTY-NH2
modifications: disulfide 3-8
SMILES: CC[C@H](C)[C@H](NC(=O)[C@@H]1CCCN1C(=O)CNC(=O)[C@H](Cc1ccccc1)NC(=O)[C@H](CC(N)=O)NC(=O)[C@H](CC(N)=O)NC(=O)[C@H](CO)NC(=O)[C@H](CO)NC(=O)[C@H](Cc1c[nH]cn1)NC(=O)[C@H](Cc1c[nH]cn1)NC(=O)[C@H](CC(C)C)NC(=O)[C@H](Cc1ccccc1)NC(=O)[C@H](CC(N)=O)NC(=O)[C@H](C)NC(=O)[C@H](CC(C)C)NC(=O)[C@H](CCCNC(=N)N)NC(=O)[C@H](CCC(N)=O)NC(=O)[C@@H](NC(=O)[C@H](C)NC(=O)[C@@H]1CSSC[C@H](NC(=O)[C@H](Cc2c[nH]cn2)NC(=O)[C@H](Cc2c[nH]cn2)NC(=O)CC[C@H](NC(=O)CCCCCCCCCCCCCCCCC(=O)O)C(=O)O)C(=O)N[C@@H](CC(N)=O)C(=O)N[C@@H]([C@@H](C)O)C(=O)N[C@@H](C)C(=O)N[C@@H]([C@@H](C)O)C(=O)N1)[C@@H](C)O)C(=O)N[C@@H](CC(C)C)C(=O)N1CCC[C@H]1C(=O)N1CCC[C@H]1C(=O)N[C@H](C(=O)N[C@@H](CC(N)=O)C(=O)N[C@H](C(=O)NCC(=O)N[C@@H](CO)C(=O)N[C@@H](CC(N)=O)C(=O)N[C@H](C(=O)N[C@@H](Cc1ccc(O)cc1)C(N)=O)[C@@H](C)O)C(C)C)[C@@H](C)O
B5: N-alpha-[4-Carboxy-4-({4-[(19-carboxynonadecanoylamino)methyl]transcyclohexanecarbonyl}amino)butyryl]-[His1,His17]-pramlintide (peptide)
peptide: {C20 diacid-Trx-γGlu}-HCNTATCATQRLANFLHHSSNNFGPILPPTNVGSNTY-NH2
modifications: disulfide 2-7
SMILES: CC[C@H](C)[C@H](NC(=O)[C@@H]1CCCN1C(=O)CNC(=O)[C@H](Cc1ccccc1)NC(=O)[C@H](CC(N)=O)NC(=O)[C@H](CC(N)=O)NC(=O)[C@H](CO)NC(=O)[C@H](CO)NC(=O)[C@H](Cc1c[nH]cn1)NC(=O)[C@H](Cc1c[nH]cn1)NC(=O)[C@H](CC(C)C)NC(=O)[C@H](Cc1ccccc1)NC(=O)[C@H](CC(N)=O)NC(=O)[C@H](C)NC(=O)[C@H](CC(C)C)NC(=O)[C@H](CCCNC(=N)N)NC(=O)[C@H](CCC(N)=O)NC(=O)[C@@H](NC(=O)[C@H](C)NC(=O)[C@@H]1CSSC[C@H](NC(=O)[C@H](Cc2c[nH]cn2)NC(=O)CC[C@H](NC(=O)[C@H]2CC[C@H](CNC(=O)CCCCCCCCCCCCCCCCCCC(=O)O)CC2)C(=O)O)C(=O)N[C@@H](CC(N)=O)C(=O)N[C@@H]([C@@H](C)O)C(=O)N[C@@H](C)C(=O)N[C@@H]([C@@H](C)O)C(=O)N1)[C@@H](C)O)C(=O)N[C@@H](CC(C)C)C(=O)N1CCC[C@H]1C(=O)N1CCC[C@H]1C(=O)N[C@H](C(=O)N[C@@H](CC(N)=O)C(=O)N[C@H](C(=O)NCC(=O)N[C@@H](CO)C(=O)N[C@@H](CC(N)=O)C(=O)N[C@H](C(=O)N[C@@H](Cc1ccc(O)cc1)C(N)=O)[C@@H](C)O)C(C)C)[C@@H](C)O
B6: N-alpha-[2-(2-{2-[4-(S)-Carboxy-4-(19-carboxynonadecanoylamino)butyrylamino]ethoxy}ethoxy)acetyl]-His-[His1,Arg17]-pramlintide (peptide)
peptide: {C20 diacid-γGlu-AEEA}-HHCNTATCATQRLANFLRHSSNNFGPILPPTNVGSNTY-NH2
modifications: disulfide 3-8
SMILES: CC[C@H](C)[C@H](NC(=O)[C@@H]1CCCN1C(=O)CNC(=O)[C@H](Cc1ccccc1)NC(=O)[C@H](CC(N)=O)NC(=O)[C@H](CC(N)=O)NC(=O)[C@H](CO)NC(=O)[C@H](CO)NC(=O)[C@H](Cc1c[nH]cn1)NC(=O)[C@H](CCCNC(=N)N)NC(=O)[C@H](CC(C)C)NC(=O)[C@H](Cc1ccccc1)NC(=O)[C@H](CC(N)=O)NC(=O)[C@H](C)NC(=O)[C@H](CC(C)C)NC(=O)[C@H](CCCNC(=N)N)NC(=O)[C@H](CCC(N)=O)NC(=O)[C@@H](NC(=O)[C@H](C)NC(=O)[C@@H]1CSSC[C@H](NC(=O)[C@H](Cc2c[nH]cn2)NC(=O)[C@H](Cc2c[nH]cn2)NC(=O)COCCOCCNC(=O)CC[C@H](NC(=O)CCCCCCCCCCCCCCCCCCC(=O)O)C(=O)O)C(=O)N[C@@H](CC(N)=O)C(=O)N[C@@H]([C@@H](C)O)C(=O)N[C@@H](C)C(=O)N[C@@H]([C@@H](C)O)C(=O)N1)[C@@H](C)O)C(=O)N[C@@H](CC(C)C)C(=O)N1CCC[C@H]1C(=O)N1CCC[C@H]1C(=O)N[C@H](C(=O)N[C@@H](CC(N)=O)C(=O)N[C@H](C(=O)NCC(=O)N[C@@H](CO)C(=O)N[C@@H](CC(N)=O)C(=O)N[C@H](C(=O)N[C@@H](Cc1ccc(O)cc1)C(N)=O)[C@@H](C)O)C(C)C)[C@@H](C)O
B7: N-alpha-[(S)-4-Carboxy-4-(19-carboxynonadecanoylamino)butyryl]-His-[His1,Arg17]-pramlintide (peptide)
peptide: HHCNTATCATQRLANFLRHSSNNFGPILPPTNVGSNTY-NH2
modifications: disulfide 3-8; not fully specified (N-terminus); printed as N-alpha-[(S)-4-Carboxy-4-(19-carboxynonadecanoylamino)butyryl]-His-[His1,Arg17]-pramlintide
B8: N-alpha-[(S)-4-Carboxy-4-(19-carboxynonadecanoylamino)butyryl]-[His1,Arg17]-pramlintide (peptide)
peptide: {C20 diacid-γGlu}-HCNTATCATQRLANFLRHSSNNFGPILPPTNVGSNTY-NH2
modifications: disulfide 2-7
SMILES: CC[C@H](C)[C@H](NC(=O)[C@@H]1CCCN1C(=O)CNC(=O)[C@H](Cc1ccccc1)NC(=O)[C@H](CC(N)=O)NC(=O)[C@H](CC(N)=O)NC(=O)[C@H](CO)NC(=O)[C@H](CO)NC(=O)[C@H](Cc1c[nH]cn1)NC(=O)[C@H](CCCNC(=N)N)NC(=O)[C@H](CC(C)C)NC(=O)[C@H](Cc1ccccc1)NC(=O)[C@H](CC(N)=O)NC(=O)[C@H](C)NC(=O)[C@H](CC(C)C)NC(=O)[C@H](CCCNC(=N)N)NC(=O)[C@H](CCC(N)=O)NC(=O)[C@@H](NC(=O)[C@H](C)NC(=O)[C@@H]1CSSC[C@H](NC(=O)[C@H](Cc2c[nH]cn2)NC(=O)CC[C@H](NC(=O)CCCCCCCCCCCCCCCCCCC(=O)O)C(=O)O)C(=O)N[C@@H](CC(N)=O)C(=O)N[C@@H]([C@@H](C)O)C(=O)N[C@@H](C)C(=O)N[C@@H]([C@@H](C)O)C(=O)N1)[C@@H](C)O)C(=O)N[C@@H](CC(C)C)C(=O)N1CCC[C@H]1C(=O)N1CCC[C@H]1C(=O)N[C@H](C(=O)N[C@@H](CC(N)=O)C(=O)N[C@H](C(=O)NCC(=O)N[C@@H](CO)C(=O)N[C@@H](CC(N)=O)C(=O)N[C@H](C(=O)N[C@@H](Cc1ccc(O)cc1)C(N)=O)[C@@H](C)O)C(C)C)[C@@H](C)O

These binders were tested against T1, Amylin 3(a) receptor (human calcitonin receptor (CTa) with RAMP-3) (human, UniProt P30988 25-474; O60896 24-148, limits assumed) (assay: cell-based or functional assay).
T1 sequence (looked up) 1: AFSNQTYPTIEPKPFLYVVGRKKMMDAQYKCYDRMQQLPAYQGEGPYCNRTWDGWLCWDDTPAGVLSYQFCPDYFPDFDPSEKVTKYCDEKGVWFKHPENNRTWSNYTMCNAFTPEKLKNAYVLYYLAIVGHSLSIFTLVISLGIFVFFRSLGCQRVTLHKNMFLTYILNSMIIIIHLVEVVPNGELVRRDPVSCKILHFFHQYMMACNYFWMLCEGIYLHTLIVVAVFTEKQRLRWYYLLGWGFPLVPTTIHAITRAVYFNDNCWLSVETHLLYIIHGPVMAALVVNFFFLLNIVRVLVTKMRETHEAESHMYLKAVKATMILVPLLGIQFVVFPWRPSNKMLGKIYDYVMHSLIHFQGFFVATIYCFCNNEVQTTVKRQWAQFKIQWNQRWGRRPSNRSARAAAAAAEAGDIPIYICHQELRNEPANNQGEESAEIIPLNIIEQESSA
T1 sequence (looked up) 2: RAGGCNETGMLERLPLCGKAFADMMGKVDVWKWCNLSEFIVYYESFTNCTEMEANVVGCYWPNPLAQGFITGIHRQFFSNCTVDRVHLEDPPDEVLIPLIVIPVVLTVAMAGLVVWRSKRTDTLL
In the case of B1, the “Potency Luciferase” value is reported as 50 pM.
For B2, the “Potency Luciferase” value was 100 pM.
B3 was tested, and the “Potency Luciferase” value was 100 pM.
{C20 diacid-γGlu}-HCNTATCATQRLANFLHHSSNNFGPILPPTNVGSNTY-NH2 (disulfide 2-7) [N-alpha-[(S)-4-Carboxy-4-(19-carboxynonadecanoylamino)butyryl]-[His1,His17]-pramlintide] was tested, and the “Potency Luciferase” value was 70 pM.
For KCK([AEEA-Glu-Glu-C20 diacid])TATCATQRLANFLHHSSDNFGPILPPTNVGSNTY-NH2 (disulfide 2-7), the “Potency Luciferase” value was 400 pM.
With {C20 diacid-4‑aminobutyryl}-CNTATCATQRLANFLHHSSNNFGPILPPTNVGSNTY-NH2 (disulfide 1-6) [N-alpha-[4-(19-Carboxynonadecanoylamino)butyryl]-[His17]-pramlintide (2-37)] the “Potency Luciferase” value was 60 pM.
B4 was tested, and the “Potency Luciferase” value was 20 pM.
For X1-HCNTATCATQRLANFLHHSSNNFGPILPPTNVGSNTY-NH2 (disulfide 2-7) [N-alpha-[(S)-4-Carboxy-4-(17-carboxyheptadecanoylamino)butyryl]-[His1,His17]-pramlintide], the “Potency Luciferase” value was 80 pM.
B5 was tested, and the “Potency Luciferase” value was 100 pM.
In the case of B6, the “Potency Luciferase” value is reported as 200 pM.
B7 was tested, and the “Potency Luciferase” value was 100 pM.
With B8 the “Potency Luciferase” value was 100 pM.
